Laboratory results reported in publication PMC2871789, “Characterization of the Interaction and Cross-Regulation of Three Mycobacterium tuberculosis RelBE Modules” (PLoS ONE, 2010).

Assays:
[1] = molecular target: T1, GST-RelE (Rv1246c), purified (M. tuberculosis, UniProt O50461 1-97); assay: pull-down; conditions: both partners purified
T1 construct: the methods state the opposite tagging; also called GST-tagged RelE; pGEX-1246c
T1 sequence: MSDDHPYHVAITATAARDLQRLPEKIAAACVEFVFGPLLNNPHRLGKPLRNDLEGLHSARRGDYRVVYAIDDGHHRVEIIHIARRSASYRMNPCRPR

[2] = molecular target: T2, 6xHis-RelF (Rv2865), purified (M. tuberculosis, UniProt O33347 1-93); assay: pull-down; conditions: both partners purified
T2 construct: also called his-tagged RelF; pET-2865; not shown: His6, N-terminal, kept
T2 sequence: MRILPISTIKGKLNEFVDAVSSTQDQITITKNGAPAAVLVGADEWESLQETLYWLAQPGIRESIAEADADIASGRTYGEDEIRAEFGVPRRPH

B1: 6xHis-RelB (Rv1247c), purified (natural protein)
chain: MAVVPLGEVRNRLSEYVAEVELTHERITITRHGHPAAVLISADDLASIEETLEVLRTPGASEAIREGLADVAAGRFVSNDEIRNRYTAR
notes: also called his-tagged RelB; histidine-tagged RelB; not shown: His6, N-terminal, kept
Does B1 bind [1]?
Result: binds

B2: GST-RelG (Rv2866), purified (natural protein)
chain: MPYTVRFTTTARRDLHKLPPRILAAVVEFAFGDLSREPLRVGKPLRRELAGTFSARRGTYRLLYRIDDEHTTVVILRVDHRADIYRR
notes: also called GST-tagged RelG; pGEX-2866
Does B2 bind [2]?
Result: binds
